The target of test [1] is HLA-B*57:01. As to the kind of experiment: IEDB peptide-MHC binding, purified MHC/competitive/radioactivity; filed as Kd, often an IC50 or EC50 that approximates it; ≥ and ≤ were set here for values at or beyond the usual limits of such assays.
Another test deals with HLA-A*02:02. Described as above.
The target in test [2] is HLA-A*02:03. The test is described as above.
For a further test, the target named is HLA-A*02:06. The description is as above.
Test [3] concerns the target HLA-A*68:02. The description is as above.
Another test concerns the target HLA-A*01:01. As to the kind of experiment: IEDB peptide-MHC binding, purified MHC/direct/fluorescence; filed as Kd, often an IC50 or EC50 that approximates it; ≥ and ≤ were set here for values at or beyond the usual limits of such assays. To be noted: source organism: Giardia lamblia ATCC 50803.
In a further test the target is HLA-A*29:02. Described as above. To be noted: source organism: Giardia lamblia ATCC 50803.
For test [4], the target named is HLA-A*02:03. Kind of test: IEDB peptide-MHC binding, purified MHC/competitive/fluorescence; filed as Kd, often an IC50 or EC50 that approximates it; ≥ and ≤ were set here for values at or beyond the usual limits of such assays.
In test [5] the target is HLA-A*03:01. The test is described as above. The following applies: source organism: Cryptosporidium parvum Iowa II.
Test [6] deals with HLA-A*26:01. The description is as above. The following applies: source organism: Cryptosporidium parvum Iowa II.
Test [7] has as its target HLA-A*68:02. The description is as above. The following applies: source organism: Cryptosporidium parvum Iowa II.
In test [8] the target is HLA-B*15:01. Described as above. The following applies: source organism: Cryptosporidium parvum Iowa II.
The next test concerns the target HLA-B*18:01. The description is as above. To be noted: source organism: Cryptosporidium parvum Iowa II.
The target in another test is HLA-B*27:03. Described as above. To be noted: source organism: Cryptosporidium parvum Iowa II.
The target in the next test is HLA-B*39:01. Described as above. To be noted: source organism: Cryptosporidium parvum Iowa II.
For a further test, the target named is HLA-B*46:01. The test is described as above. To be noted: source organism: Cryptosporidium parvum Iowa II.
The target of test [9] is HLA-B*57:01. The test is described as above. The following applies: source organism: Cryptosporidium parvum Iowa II.
Test [10] deals with HLA-A*26:01. As to the kind of experiment: IEDB peptide-MHC binding, purified MHC/competitive/radioactivity; filed as Kd, often an IC50 or EC50 that approximates it; ≥ and ≤ were set here for values at or beyond the usual limits of such assays. The following applies: source organism: Dengue virus 2 Jamaica/1409/1983.
The next test deals with HLA-A*33:01. Described as above. The following applies: source organism: Vaccinia virus WR.
Another test concerns the target HLA-B*07:02. Described as above. To be noted: source organism: Vaccinia virus WR.
Another test deals with HLA-B*35:01. Described as above. The following applies: source organism: Vaccinia virus WR.
Another test addresses HLA-B*51:01. Described as above.
The target in another test is HLA-B*53:01. The test is described as above. The following applies: source organism: Vaccinia virus WR.
The target in the next test is HLA-B*54:01. The description is as above. To be noted: source organism: Vaccinia virus WR.
The target in test [11] is HLA-A*02:01. Kind of test: IEDB peptide-MHC binding, purified MHC/competitive/fluorescence; filed as Kd, often an IC50 or EC50 that approximates it; ≥ and ≤ were set here for values at or beyond the usual limits of such assays. The following applies: source organism: Homo sapiens.
In another test the target is HLA-A*69:01. The test is described as above. To be noted: source organism: Homo sapiens.
The target in test [12] is HLA-A*02:01. As to the kind of experiment: IEDB peptide-MHC binding, purified MHC/competitive/fluorescence; ≥ and ≤ were set here for values at or beyond the usual limits of such assays.
The target in test [13] is HLA-A*03:01. The description is as above.
Test [14] has as its target HLA-A*11:01. Described as above.
Test [15] addresses HLA-B*15:01. The test is described as above.
In test [16] the target is HLA-A*02:01. Kind of test: IEDB peptide-MHC binding, purified MHC/competitive/radioactivity; filed as Kd, often an IC50 or EC50 that approximates it; ≥ and ≤ were set here for values at or beyond the usual limits of such assays.
Test [17] concerns the target HLA-A*03:01. Described as above. To be noted: source organism: Vaccinia virus WR.
The target of test [18] is HLA-A*11:01. The description is as above. To be noted: source organism: Vaccinia virus WR.
In another test the target is HLA-A*31:01. Described as above. To be noted: source organism: Vaccinia virus WR.
The target of a further test is HLA-A*68:01. The test is described as above. The following applies: source organism: Vaccinia virus WR.
Another test has as its target HLA-A*24:02. As to the kind of experiment: IEDB peptide-MHC binding, purified MHC/competitive/fluorescence; ≥ and ≤ were set here for values at or beyond the usual limits of such assays.
[19] abbreviates: source organism: Dengue virus 1 Brazil/97-11/1997.
Where [20] appears, read: source organism: Mammarenavirus brazilense.
[21] abbreviates: source organism: Dengue virus 2 Jamaica/1409/1983.
[22] abbreviates: source organism: Vaccinia virus WR.
Setting [23] is: source organism: Zaire ebolavirus.
The mark [24] stands for this setting: source organism: Sudan ebolavirus.
The mark [25] stands for this setting: source organism: Trypanosoma cruzi.
The mark [26] stands for this setting: source organism: Vaccinia virus.

As for TTSQKTTWLP, in the test with HLA-B*57:01 [1] (setting [19]), the Kd (commonly the equilibrium constant for the complex coming apart) came out at 446 nM.
As to AINIALIAV, the Kd in the test with HLA-A*02:02 (setting [20]) is 766 nM; with HLA-A*02:03 [2] (setting [20]) it was 46.7 nM; in the test with HLA-A*02:06 (setting [20]), 681 nM; with HLA-A*68:02 [3] (setting [20]), 1300 nM.
On to LTAHYCFLY, for which the Kd in the test with HLA-A*01:01 is 7 nM; in the test with HLA-A*29:02 it was at most 1 nM.
KSWLVHWSL: the Kd with HLA-A*02:03 [4] (source organism: Cryptosporidium parvum Iowa II), with HLA-A*03:01 [5], in the test with HLA-A*26:01 [6], with HLA-A*68:02 [7], in the test with HLA-B*15:01 [8] and with HLA-B*18:01 was at least 20000 nM each time. Moreover, the Kd with HLA-B*27:03 was at least 20000 nM; with HLA-B*39:01, at least 20000 nM; with HLA-B*46:01, at least 20000 nM; with HLA-B*57:01 [9] it was 32.8 nM.
Regarding EIVDLMCHA, the Kd with HLA-A*26:01 [10] was found to be 1580 nM; in the test with HLA-A*68:02 [3] (setting [21]) it was 44 nM.
With LLTACTIFYI, the Kd in the test with HLA-A*02:02 (setting [22]) is 2.72 nM; in the test with HLA-A*02:03 [2] (setting [22]), 11.8 nM; with HLA-A*02:06 (setting [22]), 55.8 nM; with HLA-A*33:01, 7390 nM; in the test with HLA-A*68:02 [3] (setting [22]) it was 229 nM; with HLA-B*07:02 it was at least 69600 nM. The dissociation constant Kd with HLA-B*35:01 was at least 69900 nM; in the test with HLA-B*51:01 (setting [22]) it was at least 69600 nM; with HLA-B*53:01 it was at least 22100 nM; with HLA-B*54:01, at least 27600 nM.
For TTRLENVMW, the Kd with HLA-B*57:01 [1] (source organism: Dengue virus 4 Dominica/814669/1981) amounted to 14.6 nM.
For IRVEGNLRV, the Kd in the test with HLA-A*02:01 [11], with HLA-A*02:03 [4] (source organism: Homo sapiens) and in the test with HLA-A*69:01 was at least 20000 nM in each case.
For the sequence FASGRKSITL, the dissociation constant Kd in the test with HLA-B*57:01 [1] (source organism: Dengue virus 4 Philippines/H241/1956) was found to be 6170 nM.
Consider IALGVATAH, for which the IC50 – broadly, the concentration that gives 50% inhibition – in the test with HLA-A*02:01 [12] (setting [23]) is at least 223000 nM; in the test with HLA-A*03:01 [13] (setting [23]), at least 160000 nM; in the test with HLA-A*11:01 [14] (setting [23]), 10800 nM; in the test with HLA-B*15:01 [15] (setting [23]), 61100 nM.
For the sequence KNKLYLVDY, the IC50 with HLA-B*15:01 [15] (setting [22]) worked out at 34200 nM.
On to GTSGSPIVNR, for which the Kd in the test with HLA-B*57:01 [1] (setting [19]) came out at 104 nM.
As for SQIPSSSPT, the half-inhibitory concentration (IC50) was found to be 30000 nM in the test with HLA-A*02:01 [12] (setting [24]) and 8510 nM with HLA-B*15:01 [15] (setting [24]).
Consider GLLLLLLLLG, for which the dissociation constant (Kd) in the test with HLA-A*02:01 [16] (setting [25]) came to 171 nM; in the test with HLA-A*02:02 (setting [25]) it was 456 nM; with HLA-A*02:03 [2] (setting [25]), 330 nM; with HLA-A*02:06 (setting [25]) it was 420 nM; in the test with HLA-A*68:02 [3] (setting [25]), 1790 nM.
In the case of EVVMAYVGIK, the dissociation constant (Kd) with HLA-A*02:01 [16] (setting [22]) is 4000 nM; in the test with HLA-A*02:02 (setting [22]), 12000 nM; with HLA-A*02:03 [2] (setting [22]), 15900 nM; in the test with HLA-A*02:06 (setting [22]), 15000 nM; with HLA-A*03:01 [17] it was 413 nM; with HLA-A*11:01 [18] it was 97.7 nM. Further, the Kd with HLA-A*31:01 was 786 nM; with HLA-A*33:01 it was 1170 nM; with HLA-A*68:01, 6.68 nM; in the test with HLA-A*68:02 [3] (setting [22]), 2580 nM; with HLA-B*07:02 it was 9980 nM; with HLA-B*35:01 it was at least 23300 nM. For the same sequence, the Kd in the test with HLA-B*51:01 (setting [22]) is at least 23200 nM; with HLA-B*53:01, 6770 nM; in the test with HLA-B*54:01, 7930 nM.
On to SSYYATSYL, for which the IC50 in the test with HLA-A*02:01 [12] (setting [24]) came out at 3160 nM; with HLA-A*03:01 [13] (setting [24]), 18500 nM; with HLA-A*11:01 [14] (setting [24]), 2700 nM; in the test with HLA-A*24:02 (setting [24]), 955 nM; with HLA-B*15:01 [15] (setting [24]) it was 24200 nM.
Turning to TTRMENLLW, in the test with HLA-B*57:01 [1] (source organism: Dengue virus 3 Martinique/1243/1999), the Kd worked out at 5.23 nM.
For the sequence TIIGTNGNH, the IC50 with HLA-B*15:01 [15] (setting [24]) is at least 150000 nM.
As for MAISGDDCV, the figures for the Kd with HLA-A*68:02 [3] (setting [21]) and with HLA-B*51:01 (setting [21]) were 65.8 nM and 17400 nM, respectively.
For the sequence LMLCLHHAY, the IC50 with HLA-A*02:01 [12] (setting [23]) was determined as 38100 nM; in the test with HLA-B*15:01 [15] (setting [23]), 22300 nM.
As to SQGREAAVS, in the test with HLA-B*15:01 [15] (setting [23]), the IC50 amounted to 26900 nM.
For MILVPLITV, the Kd with HLA-A*02:01 [16] (source organism: Variola virus) came out at 14.6 nM; with HLA-A*02:02 (source organism: Variola virus) it was 138 nM; with HLA-A*02:03 [2] (source organism: Variola virus) it was 29.6 nM; in the test with HLA-A*02:06 (source organism: Variola virus), 2.55 nM; in the test with HLA-A*68:02 [3] (source organism: Variola virus), 0.278 nM.
As to MMIQTRAAD, the IC50 is at least 104000 nM in the test with HLA-A*02:01 [12] (setting [26]) and at least 77200 nM in the test with HLA-B*15:01 [15] (setting [26]).
Take KFMAILQHH: the IC50 with HLA-A*03:01 [13] (setting [23]) was at least 301000 nM; with HLA-A*24:02 (setting [23]) it was 16600 nM; in the test with HLA-B*15:01 [15] (setting [23]) it was at least 327000 nM.
Take VVRLLTKPW: in the test with HLA-B*57:01 [1] (setting [21]), the Kd was 27.9 nM.

The values above are taken from the Immune Epitope Database (IEDB).
